This note sets out measurements from US6881557 (ARROWSMITH TECHNOLOGY LICENSING, dated 2005).

Test [1] addresses T1, human glutamic acid decarboxylase 65 kilodalton isoform (human, UniProt Q05329 1-585).
T1 construct: also called GAD65; antigen
Kind of test: immunoprecipitation of 35S-methionine labelled GAD65 with Fab and Protein G-Sepharose; midpoint read visually.

Test [2] deals with T2, chicken lysozyme (chicken, UniProt P00698 19-147).
T2 construct: also called chicken lysozyme antigen
Kind of test: fluorescence quench titration (FIG. 7 legend); FIG. 7 legend, bound only.

Test [3] concerns the target T2, chicken lysozyme. Put plainly: fluorescence quench titration; reference is the literature Kd of D1.3 IgG (4 nM).
Test [4] addresses T2, chicken lysozyme. Put plainly: intrinsic tryptophan fluorescence quench titration, 200 nM Fab titrated with lysozyme in solution.
Test [5] has as its target T3, CD28Ig (human, UniProt P10747 19-152).
T3 construct: also called GD28Ig; human CD28; not shown: Ig part of CD28Ig; not described
Kind of test: ELISA on CD28Ig coated plates (FIG. 11 legend).

Test [6] deals with T3, CD28Ig. Kind of test: ELISA, CD28Ig coated plates, detection with anti-human kappa immunoconjugate.

T2 sequence (P00698 19-147 limits assumed): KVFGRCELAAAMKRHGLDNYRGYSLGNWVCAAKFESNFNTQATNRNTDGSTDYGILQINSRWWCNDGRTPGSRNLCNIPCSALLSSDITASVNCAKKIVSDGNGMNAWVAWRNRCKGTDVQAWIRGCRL
T1 sequence (Q05329 whole entry, canonical isoform): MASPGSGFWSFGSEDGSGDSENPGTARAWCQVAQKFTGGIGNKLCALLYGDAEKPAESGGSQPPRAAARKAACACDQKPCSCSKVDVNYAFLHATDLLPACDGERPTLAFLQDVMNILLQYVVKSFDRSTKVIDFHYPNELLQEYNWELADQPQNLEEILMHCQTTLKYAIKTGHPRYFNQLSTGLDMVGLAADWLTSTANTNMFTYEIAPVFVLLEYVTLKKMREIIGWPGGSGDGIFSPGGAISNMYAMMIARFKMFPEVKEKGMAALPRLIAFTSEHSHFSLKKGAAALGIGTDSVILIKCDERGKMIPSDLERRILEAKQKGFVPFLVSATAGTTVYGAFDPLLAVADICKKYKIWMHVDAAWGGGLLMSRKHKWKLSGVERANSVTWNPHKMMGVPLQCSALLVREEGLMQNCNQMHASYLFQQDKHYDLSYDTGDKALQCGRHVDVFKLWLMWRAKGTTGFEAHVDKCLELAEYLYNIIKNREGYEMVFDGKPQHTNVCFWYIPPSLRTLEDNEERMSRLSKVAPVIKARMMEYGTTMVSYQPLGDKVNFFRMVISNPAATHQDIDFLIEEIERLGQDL

B1: Fab fragment comprised of mouse NGAD65 variable and constant domains (Fab, V domains shown)
VH: QVQLQQPGAELVKPGASVKMSCKASGYRFSSYNMHWVKQTPGQGLEWIGAIYPRSGDTSYNQKFKGKATLTADKSSSTAYMQLGSLTSEDSAVYYCVRSYDYDAPFAFWGQGTLVTVSA
VL: VLTQTPLSLPVSLGDQASISCRSSQSLEHNNGNTYLNWYLQKPGQSPQLLIYRVSNRFSGGLDRFSGSGSGTDFTLKISRVEAEDLGVYFCLQVTHVPFTFGSGTKLEIKR
notes: also called mouse Fab; mouse NGAD65 Fab
As for B1, a half-maximal response in test [1] (EC50) required 0.00036 nM.

B2: humanized D1.3 Fab (Fab, V domains shown)
VH: QVQLQESGPGLVKPSETLSLTCTVSGGSVSGYGVNWIRQPPGKGLEWIGMIWGDGNTDYNSSLKSRVTISVDTSKNQFSLKLSSVTAADTAVYYCARERDYRLDYWGQGTLVTVSS
VL: AIRMTQSPFSLSASVGDRVTITCRASGNIHNYLAWYQQKPAKAPKLFIYYTTTLADGVPSRFSGSGSGTDYTLTISSLQPEDFATYYCQHFWSTPRTFGGGTKVEIKR
notes: also called SHuD1.3; humanized D1.3 antibody
For the molecule B2, the Ka in the test with chicken lysozyme [2] came to 4.3e+07 M⁻¹. For the same molecule, the “factor by which affinity is diminished relative to the subject mouse antibody D1.3” value in the test with chicken lysozyme [3] is less than 6 fold. In the test with chicken lysozyme [4], binding was characterised by a dissociation constant (Kd) of 23 nM.

B3: humanized anti-human CD28 (Hu.9.3) Fab fragment (Fab, V domains shown)
VH: EVQLVQSGGGLVQPGGSLRLSCAGSGFTFSDYGVHWVRQAPGKGLEWVSAIWAGGGTNYASSVMGRFTISRDNAKNSLYLQMNSLRAEDMAVYYCARDKGYSYYYSMDYWGQGTLVTVSS
VL: DIVMTQSPDSLAVSLGERATINCRASESVEYYVTSLMAWYQQKPGQPPKLLIYAASNVESGVPDRFSGSGSGTNFSLTISSLQAEDVAVYYCQQSRKVPYTFGQGTKLEIKR
notes: also called humanized 9.3
On to B3, for which, in the test with CD28Ig [5], the Ka is more than 1e+06 M⁻¹. Further, a half-maximal response in the test with CD28Ig [6] (EC50) required 630 nM.

B4: hybrid Fab fragment comprised of human constant domains, mouse 9.3 heavy chain variable domain, and humanized light chain variable domain (Fab, V domains shown)
VH: EVKLQQSGPGLVTPSQSLSITCTVSGFSLSDYGVHWVRQSPGQGLEWLGVIWAGGGTNYNSALMSRKSISKDNSKSQVFLKMNSLQADDTAVYYCARDKGYSYYYSMDYWGQGTSVTVSS
VL: B3 VL
The molecule B4 came in with an EC50 in the test with CD28Ig [6] of 30 nM.
